Assay results: PMC7563181

Key:
[1] = target: membrane-bound GFP (pHR_EGFPligand)
[2] = target: membrane-bound GFP (pHR_EGFPligand); remark: listed apart in the source
[3] = target: membrane-bound GFP (pHR_EGFPligand); remark: listed apart in the source
[4] = target: membrane-bound GFP (pHR_EGFPligand); remark: listed apart in the source
[5] = target: membrane-bound GFP (pHR_EGFPligand); remark: listed apart in the source
[6] = target: membrane-bound GFP (pHR_EGFPligand); remark: listed apart in the source
[7] = target: membrane-bound GFP (pHR_EGFPligand); remark: listed apart in the source

Substance: LaG17_synNotch_TetRVP64 (synNotch receptor against GFP with a tTA intracellular domain)
- % dsRed-Express-positive cells at the first sort of the transduced bulk receiver population after activation with antigen-expressing cells (flow cytometry) [1]: 10.3%
- % Activation in Bulk Population (dsRed-Express, 60 min, sender:receiver 1:1) [2]: 31.3%
- % Activation in Clonal Cell Lines (dsRed-Express, 60 min, sender:receiver 1:1) [2]: 73.5%
- Overall efficiency of indel formation at the CXCR4 locus (TIDE) after activation of receiver cells by GFP sender cells (1:1, 60 min), Experiment 1 [3]: 34.5%
- Overall efficiency of indel formation at the CXCR4 locus (TIDE) after activation of receiver cells by GFP sender cells (1:1, 60 min), Experiment 2 [3]: 41.3%
- Overall efficiency of indel formation at the CXCR4 locus (TIDE) after activation of receiver cells by GFP sender cells (1:1, 60 min), Experiment 3 [3]: 45.4%
- Indel formation frequency at the CXCR4 locus (TIDE) after activation by GFP sender cells, receiver cells kept in low FBS (G1 arrest) [4]: 37.4%
- Indel formation frequency at the CXCR4 locus (TIDE) after activation by GFP sender cells, receiver cells kept without FBS (G1 arrest) [4]: 31.4%
- Indel formation frequency at the CXCR4 locus (TIDE) after activation by GFP sender cells, receiver cells treated with nocodazole (G2/M arrest) [4]: 34.4%
- % dsRed-Express-positive receiver cells after co-culture with antigen-expressing sender cells at three sender-receiver ratios (5:1, 1:1, 1:5), flow cytometry after 48 h; 7.6% to 40.1% [5]: 40.1%
- % dsRed-Express-positive receiver cells after 10, 30, 60, 120 and 180 min of contact with antigen-expressing sender cells (ratio 1:1), flow cytometry 48 h later; 7.3% to 37.3% [6]: 37.3%
- synNotch-mediated fluorophore expression, bulk population before clonal expansion (differs from Table 2) [7]: 34.8%
- synNotch-mediated fluorophore expression, clonal cell line (differs from Table 2) [7]: 73.6%
